This data set is described as follows: label from the status in PepcDB records.

“MVVAVYPGTFDPLTRGHEDLVRRASSIFDTLVVGVADSRAKKPFFSLEERLKIANEVLGHYPNVKVMGFTGLLKDFVRANDARVIVRGLRAVSDFEYEFQMAGMNRYLLPDVETMFMTPSDQYQFISGTIVREIAQLGGDVSKFVFPSVEKWLTEKVAAMAQGPSA”: the protein production entry is on record as “not failed”.
Under “MVVETIERSCEGSKRRHVNGGDIAVPCSGEECSNGDINVAPGVSAKRARVSREMTFEDIYGADALLNDDDDEDDDCDWEPVQAPMEFVKWCCVNCTMSNPGDMVHCCICGEHKESGILRHGYLASPFFKDTGLIEVEEKYGGSSSATSSTAVGFDERMLLHSEFEVKAQPHPERPDRLRAIAASLATAGVFPGRCLPINAREITKQELQMVHTSEHVDAVDTTSQLLYSYFTSDTYANEYSARAARLAAGLCADLATDIFTGRVKNGFALVRPPGHHAGVRHAMGFCLHNNAAVAALVAQAAGAKKVLIVDWDVHHGNGTQEIFEQNKSVLYISLHRHEGGNFYPGTGAADEVGSNGGEGYCVNVPWSCGGVGDKDYIFAFQHVVLPIASAFSPDFVIISAGFDAARGDPLGCCDVTPAGYSRMTQMLGDLCGGKMLVILEGGYNLRSISASATAVIKVLLGENPENELPIATTPSVAGLQTVLDVLNIQLEFWPSLAISYSKLLSELEARLIENKSEKSDEKEGCSGSDMVEMGTKEAFVQLSLGSYDFKIKVILESILPNPS” stands “failed”; under “MVVHGGAAYIRAMDHLPVDPARYGAFLVAMFVMAITPGPANLFAIATGMEKGKGAALAGVAGMNCATLIWFIGSALGLGALIIAFPQAFHLLALAGAAYLVWLGLKSLWAGWKNAESHAVAAVRGGKSAFVDGFAVQIANPKALLFFTAVLPPFLDVDRPLVPQLLMFACATIGMDLISMSAYGVGGAALSDRMNEPGFRRGFAILVGVLLITAAGLIVSRG”, “failed”.
For the sequence “MVVKASGGSSVARPQLYQTVPVSTIIQAEQQDRFLNRGELDELAVYLRSGAKRLEIATTLTRNADIIVSRAANRIFVGGSPMAFLSRPQTEEAPQFTTGARGEAIDIKEAMKLGTATYVDTRGGFLEGLRSIFSASSGGAPVGFKPINIARYGPARMEKSLRDLDWFLRYTTYAIVAGDPNILAVNTRGLREIIEAACSSDATIAALQEMRRAALSYFEKDAEAKGIVETYFDVLINEFIAPAPSDKVRQRNSTDLQGLQLPQIYFNAAERRPKFVMKPGLSAAEKNEVVKAAYRQIFERDISRAYGLGISDLESKVKNGSISMKEFIRQLAKSPLYRKNFYEPYINSRALELAFRHILGRGPSSREEVQTYFAIISKGGLPALVDALVDSKEYSDYFGEETVPYLRGLGQEAQECRNWGAQQDLFKYSAPFRKVPQFITTFAAQDQPLPDQHPYGSGNDPLEIQFGAIFPKEKKNPSARPQPFNKDTRRILIARGPGINNQVSNPGARGLTPGTLGPKVFKLDQLPSINARIGKRSIATGTDSVKFAESSTQRVIRAAYLQVFGRDVYEGQRQKVAEIKLENGEISVREFVRILAKSNLFRSLYWTPLYVTKAIEYIHRRLLGRPTYGRQEMNAYFDIASKKGLYGLVDAIIDSQEYSEAFGEDTVPYERYITPQGLALRSLRVGTIGETGVPPEKEETPRFVELGAVTELRTEPAIQFRANQGVSKRREQTKVFKLTDLNDKQNLQLVIQAAYRQVFERDVAPYIVRDEFTALESKLSNGEITLKEFIEALGCSELYQKEFYTPYPNTKVIELGTKHFLGRAPLDQAEIRRYNQILATQGLKAFVQALVSSAEYAQAFGEDTVPYRRFPTLPAANFPNTEKLHNQLTKQSDAIVVPSFAPVKPRLDNTKLPLLSRAIAEQEAKARQADPSKPRFIELGRSFRNGDGQSVEVGVGTTRRRPARIFRMTVGAPSAEVELVINAIYCQVMDVFSGQVPSQFRRPDLESRLRNGEITVREFVRTLASSEIYRNRFYTPYPNTKVIEFLFRHLLGRAPATQAEIRQYNKILADQGLKTAVETMVNSPEYSRYFGEDVVPYKRFPTLPAGNYIGSVKADADLVKQSWSSLSPSLVGIQPSHRD”, the protein production result is listed as “failed”.
Turning to “MVVLKKMIGLVVVLSVLLARDNPFEPEINSKNLQGGFNGIYDSYFKEIHVDLPTSARILKQITLTYQDIDGSIHSKVVGIDKGIDWHYPLKLSQHTLDPAAFEKRYQIQDFDFLMASNTMILRSPYKILRSFVLVNPYRIVLDTQKGPLDIYQNMDLNQKFFSHIKVGTHKDYYRITLILDGKYRYLLEEKNGAYELKLK”, the protein production result is on record as “failed”.
Regarding “MVVNKRLILILLFILNTAKSDELSWKGNDFTLYARQMPLAEVLHLLSENYDTAITISPLITATFSGKIPPGPPVDILNNLAAQYDLLTWFDGSMLYVYPASLLKHQVITFNILSTGRFIHYLRSQNILSSPGCEVKEITGTKAVEVSGVPSCLTRISQLASVLDNALIKRKDSAVSVSIYTLKYATAMDTQYQYRDQSVVVPGVVSVLREMSKTSVPTSSTNNGSPATQALPMFAADPRQNAVIVRDYAANMAGYRKLITELDQRQQMIEISVKIIDVNAGDINQLGIDWGTAVSLGGKKIAFNTGLNDGGASGFSTVISDTSNFMVRLNALEKSSQAYVLSQPSVVTLNNIQAVLDKNITFYTKLQGEKVAKLESITTGSLLRVTPRLLNDNGTQKIMLNLNIQDGQQSDTQSETDPLPEVQNSEIASQATLLAGQSLLLGGFKQGKQIHSQNKIPLLGDIPVVGHLFRNDTTQVHSVIRLFLIKASVVNNGISHGLEHHHHHH”, the protein production entry is “not failed”.
As to “MVVRQIRALLSSLLWAWRRARLQGRSAFQLVRACLREGAKGPRHFARRMAAYASGGSASPPPVSLDAYESWHSALPQLEVPADSGMISVIIPVCNTPELFLREAIESVRTQTYQNWEICIHDDASNEPHVGRILAEFKKRIPNLRVTRSETRSGIAATTNAALASARGRWVTFLDHDDVLDRNALAAVVDCHIKTGSAVVYTDHDMLGEDGRLRNPYFKPDWNYDLFLAQMYLGHLVSFEHDLIKRVGLTRSECDGSQDYDLVLRCVAAGAKVGHVPRVLYHWRMHAGSTAANADSKPYAHDSGKRAIQYHVDAVYPGAQVEDGPHLFCYDVRYPYAQHAPKASIIIPTRDGLDLLRPCIESIQGRTDYTNFEIIVVDNGSKDPATLEWLDAMSNEPWFRVLQADVPFNWSALNNLAAASAEGEVLVFLNNDTEVASADWLQRLVENALRPDVGACGALLLYADGSIQHAGVVVGMGGWADHVFKGQQPIHHQHLFVSPILRREVLAVTGACVAISRANFDAIGGFDESFVVCGSDVELCLRAMANGKRTVYVPEAILIHHESKTRDPRVIPESDFVRSAQAYSPYRESGDPFYSPNLDYMSPSPALRGAQADA”, the protein production entry is “failed”.
As to “MVVSKMNKDAQMRAAINQKLIETGERERLKELLRAKLIECGWKDQLKAHCKEVIKEKGLEHVTVDDLVAEITPKGRALVPDSVKKELLQRIRTFLAQHASL”, the protein production entry is “failed”.
For “MVVSLCSPGKCRKGTIVSRASLRANEGRRIERSTIAPSDLPPFRSRVSQPELPVERADHDADSVADGGWQATLCALEALAGGVDEAAGTGDGRRLLWALTLDADGVVGTIEPLEQTHGARGWSKPRPVPLARVAEDDTLPQWDVRVARAIRRDASRNRRHVLDRAAAVVALVGHPAVVLSHAPTVPMEVVESAPSLEAVREGDRYVLRIVPPLREALAMEDFLPAAARQEAESLRQITVLQDGPRRLRVVRFTPAQQGAAKLIAGGLSVPADAQARLDSTLRALAGHFQIHADSSGEARERDPESRLRAEVAPVGRGISLRLVVTPLGVLGPRLAPGHGRAQLMATIGGETHVTYRDLDAEHAHVAEVFEALPFLVQQAPAGGEHTWTLDDPEDALTAIEVLPGLAGVIDLEWPRGRELRVLPADIAQLAVSVETGSEWFKLVGELRVAEGLVISLEKLVAWAHGHAGRFMPMAHGVYVALTRQLRDRLRDLAGVGDGVRDGIRVPLVAAPWLDDVLAGAGIDPDAHFRTRVKQLRAARGHDAPVPPTLVAELRPYQLEGFRWMMSLAEAGFGACLADDMGLGKTLQSLAVLLARAAGGPALVVAPTSVCGNWATEARRFAPALRVHVYADGDREAIVGQAAAHDLVIVSYNLLQQARKAFCDRHWHTVVADEAQSFKNPSSRRAQAMFALPADCRIALSGTPVENRLAELWAVMRFCVPGLLGSLARFNEHFANPIERSGARDPRQRLRRMIAPFVLRRTKAQVLDELPPRTELVIRVTPEPTEAAHYEALRRQALSEAERALLRPRKDKKAPAAMTEPEARIHVLAQLMRMRRAACDPRLVTPDVGQPGAKVRAFAELAATLAANGHKTLVFSQFVDFLQMLRQALVDAGLAWQYLDGATPAGERTRRVAAFQAGEGDVFLISLKAGGFGLNLTAADYIVIADPWWNPAAEDQAMGRAHRIGQQRPVTVYRLIAAGTIEERIVDLHQGKRALADGVLDAMDGEAIGRDVPLPDVDELVGLLRR”, the protein production result was “failed”.

Source of the values: a protein production outcome set (Wang et al. 2014).
